This is an account of results in patent US11052053B2, “Nanoparticle comprising a bio-resorbable polyester, a hydrophilic polymer and an acylated human lactoferrin-derived peptide” (Evonik Operations GmbH, priority 2018, dated 2021).

The data set can be described thus: hLFF-peptide precipitation test (freeze-thawing). The following applies: 2 mM peptide in 50 mM Hepes buffer pH 8, freezing at −18° C. The data set is classed as physicochemical. How it is done:
hLFF-peptides tested for precipitation by one freeze-thawing cycle (freezing at −18° C.) with hLFF peptides dissolved in 50 mM Hepes buffer pH 8 at a concentration of 2 mM.
Solutions of acylated and biacylated human lactoferrin peptides were tested for precipitation in several freeze-thaw cycles.

Bridge positions count the residues as written; N and C are the ends. * marks the point of attachment. Palmitoyl = CCCCCCCCCCCCCCCC(=O)*

For the substance “Acetyl-NH-KCFQWQRNMRKVRGPPVSCIKR-CONH2 (Ac-KCFQWQRNMRKVRGPPVSCIKR-NH2; disulfide 2-19; listed as Homo sapiens) [C2-hLFF]”, the “precipitation of peptide solution after freeze-thawing” value was “do not precipitate”.
Regarding “palmitoyl-NH-KCFQWQRNMRKVRGPPVSCIKR-CONH2 (Palmitoyl-KCFQWQRNMRKVRGPPVSCIKR-NH2; disulfide 2-19) [C16-hLFF]”, the “precipitation of peptide solution after freeze-thawing” value is given as “do not precipitate”.
